Measured values published in publication PMC12312565, “Crystal structures of Escherichia coli glucokinase and insights into phosphate binding” (Acta Crystallographica Section F: Structural Biology …, 2025).

Target: the molecule itself
Assay: crystal structure; phosphate-bound ecGLK, space group P4_(3)2_(1)2; crystals grown in 100 mM Tris-HCl pH 8.5, 200 mM lithium sulfate, 20%(w/v) PEG 5000 MME; data collected at room temperature; molecular replacement with PDB 1q18

B1: Escherichia coli glucokinase (enzyme, E. coli)
chain: MTKYALVGDVGGTNARLALCDIASGEISQAKTYSGLDYPSLEAVIRVYLEEHKVEVKDGCIAIACPITGDWVAMTNHTWAFSIAEMKKNLGFSHLEIINDFTAVSMAIPMLKKEHLIQFGGAEPVEGKPIAVYGAGTGLGVAHLVHVDKRWVSLPGEGGHVDFAPNSEEEAIILEILRAEIGHVSAERVLSGPGLVNLYRAIVKADNRLPENLKPKDITERALADSCTDCRRALSLFCVIMGRFGGNLALNLGTFGGVFIAGGIVPRFLEFFKASGFRAAFEDKGRFKEYVHDIPVYLIVHDNPGLLGSGAHLRQTLGHIL
notes: Escherichia coli glucokinase (glk gene cloned into pCDF-1b); Expression and purification follow Fatema et al., 2024; also called GLK; ecGLK; source: E. coli BL21 (DE3), purified (Ni-NTA, PD10 desalting)
stoichiometry N: 2
